Results on 1 molecule are retold here after paper PMC7810883, “Phosphorylation-induced changes in the PDZ domain of Dishevelled 3” (Scientific Reports, 2021).

Where a chain is given by its changes, count along the chain named. Non-standard residues stand in square brackets, D forms with d. pS = N[C@@H](COP(=O)(O)O)C(=O)O

The target in experiment [1] is T1, PDZ domain of human Dishevelled 3 (DVL3), aa 243-338, wild type (human, UniProt Q92997 243-338).
T1 construct: PDZ domain of human Dishevelled 3 (DVL3), residues 243-338; Cloned in pETM11; also called PDZ wt; hDvl3 PDZ WT domain; source: E. coli BL21(DE3), minimal media (15N or 15N,13C labelling), purified (Ni-NTA, TEV, Q-sepharose, SEC); not shown: His6, N-terminal, cleaved
T1 sequence (looked up): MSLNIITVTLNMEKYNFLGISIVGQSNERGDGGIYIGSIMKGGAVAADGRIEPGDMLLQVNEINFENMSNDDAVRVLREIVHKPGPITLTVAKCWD
The experiment is described as follows: NMR titration; 1H-15N HSQC of 100 uM 15N-labelled PDZ wt/mutant with increasing amounts of C-terminal peptide (stock 800 uM, up to four-fold over PDZ); 50 mM sodium-phosphate pH 6.5, 50 mM KCl. As to conditions: both partners purified.

For experiment [2], the target named is T2, PDZ domain of human Dishevelled 3 (DVL3), aa 243-338, S280E (human, UniProt Q92997 243-338, S280E).
T2 construct: PDZ domain of human Dishevelled 3 (DVL3), residues 243-338, phosphomimetic mutant S280E; Made by site-directed mutagenesis of pETM11-PDZ; also called PDZ S280E; source: E. coli BL21(DE3), minimal media (15N or 15N,13C labelling), purified (Ni-NTA, TEV, Q-sepharose, SEC); not shown: His6, N-terminal, cleaved
T2 sequence (looked up): T1 sequence (looked up) with S38E
Described as above. As to conditions: both partners purified.

B1: C-terminal DVL peptide consisting of aa 698-716 from DVL3 with phosphorylated pS700 (peptide, UniProt Q92997 698-716, looked up)
peptide: H-RQ[pS]FRMAMGNPSEFFVDVM-OH
notes: C-terminus of human Dishevelled 3 (DVL3), residues 698-716; The phosphorylation at S700 is told only in the methods; also called C-terminal peptide (698-716); C-terminus ligand
Consider B1, for which the binding result in experiment [1] and in experiment [2] was “binds” throughout.
